Patent US20210177983A1

Target: TNF-α (UniProt P01375)
Assay: cell-based or functional assay

Sequence of UniProt P01375 (P01375 77-233 limits assumed): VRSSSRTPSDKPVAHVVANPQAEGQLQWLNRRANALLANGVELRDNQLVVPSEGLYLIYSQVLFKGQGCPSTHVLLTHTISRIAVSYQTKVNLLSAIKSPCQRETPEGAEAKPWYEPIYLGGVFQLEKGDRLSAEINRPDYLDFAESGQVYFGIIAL

IC50 of inhibition of activation of the SEAP reporter gene in HEK-Blue TNF-α cells (235 pM TNF-α): 51 pM
Substance: TNF-R2 scCLCH1-Fc (Fc fusion)
